Laboratory results taken from US20100111958A1 (published 2010).

Tests used:
[1] = molecular target: T1, recombinant Notch2 (EGF1-12) Fc fusion protein (human); assay: phage selection and ELISA screen on passively immobilized Notch2 (EGF1-12) Fc fusion
T1 construct: passively immobilised for phage selection and ELISA screen; also called Notch2 Fc fusion protein
Method: Briefly, 2×10¹³ Fab displaying phage particles were incubated with a passively immobilized, recombinant Notch2 Fc fusion protein (SEQ ID NO:21) comprising the extracellular ligand binding site of Notch2 and surrounding EGF repeats (EGF1-12) in round one. The non-specific phage were washed off, and then the specific phage were eluted with DTT. The eluted output was used to infect TG1 F+bacteria, rescued with helper phage, and then Fab display induced with IPTG (0.25 mM). This process was repeated for two additional rounds and then round three was screened in ELISA against passively immobilized recombinant Notch2 (EGF1-12) Fc fusion (5 μg/ml).

[2] = molecular target: T2, human Notch1 with residues 382-386 mutated to the corresponding human Notch2 residues (385-389), full length, … (human, UniProt P46531 19-2555); assay: FACS on transiently transfected HEK 293 cells
T2 construct: G384 is the same in both; also called mutant hNotch1; mutated Notch1
Method: FIG. 15. In vitro characterization of 59R5. […] PC3 tumor cells were transiently transfected with human or mouse Notch receptor (hN2, human Notch2; mN2, murine Notch2; hN3, human Notch3; mN3, murine Notch3) and GFP inducible reporter construct. Transfected cells were incubated with different concentrations of antibody 59R1 and 59R5 in the presence of passively immobilized DLL4 Fc. […] Cells were also co-transfected with a plasmid encoding green fluorescent protein (GFP) to mark those cells that received transfected plasmid. Cells were incubated with 59R1 or 59R5 and fluorescent secondary antibody and then examined by FACS.
The binding epitope of 59R5 was determined. As was described in Example 3 for analysis of antibody 59R1, several point mutants were created within full-length Notch1, converting residues within EGF10 to the corresponding amino acids in human Notch 2. Mutants in full-length Notch sequences were generated by QuikChange® mutagenesis (Stratagene) and verified by sequencing. […] Cells were also co-transfected with a plasmid encoding green fluorescent protein (GFP) to mark those cells that received transfected plasmid. Cells were incubated with 59R1 or 59R5 and fluorescent secondary antibody and then examined by FACS. 59R1 and 59R5 were detected by PE-conjugated goat anti-human Fc gamma specific antibody (Jackson Immunochemicals, #109-1,6-170).

T1 sequence (chain, as listed by the source limits assumed): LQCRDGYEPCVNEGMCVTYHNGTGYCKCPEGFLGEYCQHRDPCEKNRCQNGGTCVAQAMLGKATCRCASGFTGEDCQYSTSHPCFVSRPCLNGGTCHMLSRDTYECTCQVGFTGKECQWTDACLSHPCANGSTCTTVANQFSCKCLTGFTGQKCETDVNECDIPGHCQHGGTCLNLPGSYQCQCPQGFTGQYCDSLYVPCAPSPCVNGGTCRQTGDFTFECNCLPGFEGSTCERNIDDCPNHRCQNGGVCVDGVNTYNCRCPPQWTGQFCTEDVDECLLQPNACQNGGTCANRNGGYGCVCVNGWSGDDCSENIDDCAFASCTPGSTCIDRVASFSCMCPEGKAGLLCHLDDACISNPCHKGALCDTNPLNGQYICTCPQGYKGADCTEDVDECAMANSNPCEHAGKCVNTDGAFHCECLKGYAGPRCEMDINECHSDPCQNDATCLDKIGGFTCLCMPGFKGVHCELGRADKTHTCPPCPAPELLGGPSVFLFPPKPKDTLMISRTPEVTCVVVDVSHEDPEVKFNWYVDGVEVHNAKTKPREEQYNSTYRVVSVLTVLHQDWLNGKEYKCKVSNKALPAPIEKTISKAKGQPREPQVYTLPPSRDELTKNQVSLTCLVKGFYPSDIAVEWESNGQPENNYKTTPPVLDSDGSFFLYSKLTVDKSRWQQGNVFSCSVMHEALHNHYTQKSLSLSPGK
T2 sequence (P46531 other isoform, or with tags, fused parts or gaps limits assumed, change not shown): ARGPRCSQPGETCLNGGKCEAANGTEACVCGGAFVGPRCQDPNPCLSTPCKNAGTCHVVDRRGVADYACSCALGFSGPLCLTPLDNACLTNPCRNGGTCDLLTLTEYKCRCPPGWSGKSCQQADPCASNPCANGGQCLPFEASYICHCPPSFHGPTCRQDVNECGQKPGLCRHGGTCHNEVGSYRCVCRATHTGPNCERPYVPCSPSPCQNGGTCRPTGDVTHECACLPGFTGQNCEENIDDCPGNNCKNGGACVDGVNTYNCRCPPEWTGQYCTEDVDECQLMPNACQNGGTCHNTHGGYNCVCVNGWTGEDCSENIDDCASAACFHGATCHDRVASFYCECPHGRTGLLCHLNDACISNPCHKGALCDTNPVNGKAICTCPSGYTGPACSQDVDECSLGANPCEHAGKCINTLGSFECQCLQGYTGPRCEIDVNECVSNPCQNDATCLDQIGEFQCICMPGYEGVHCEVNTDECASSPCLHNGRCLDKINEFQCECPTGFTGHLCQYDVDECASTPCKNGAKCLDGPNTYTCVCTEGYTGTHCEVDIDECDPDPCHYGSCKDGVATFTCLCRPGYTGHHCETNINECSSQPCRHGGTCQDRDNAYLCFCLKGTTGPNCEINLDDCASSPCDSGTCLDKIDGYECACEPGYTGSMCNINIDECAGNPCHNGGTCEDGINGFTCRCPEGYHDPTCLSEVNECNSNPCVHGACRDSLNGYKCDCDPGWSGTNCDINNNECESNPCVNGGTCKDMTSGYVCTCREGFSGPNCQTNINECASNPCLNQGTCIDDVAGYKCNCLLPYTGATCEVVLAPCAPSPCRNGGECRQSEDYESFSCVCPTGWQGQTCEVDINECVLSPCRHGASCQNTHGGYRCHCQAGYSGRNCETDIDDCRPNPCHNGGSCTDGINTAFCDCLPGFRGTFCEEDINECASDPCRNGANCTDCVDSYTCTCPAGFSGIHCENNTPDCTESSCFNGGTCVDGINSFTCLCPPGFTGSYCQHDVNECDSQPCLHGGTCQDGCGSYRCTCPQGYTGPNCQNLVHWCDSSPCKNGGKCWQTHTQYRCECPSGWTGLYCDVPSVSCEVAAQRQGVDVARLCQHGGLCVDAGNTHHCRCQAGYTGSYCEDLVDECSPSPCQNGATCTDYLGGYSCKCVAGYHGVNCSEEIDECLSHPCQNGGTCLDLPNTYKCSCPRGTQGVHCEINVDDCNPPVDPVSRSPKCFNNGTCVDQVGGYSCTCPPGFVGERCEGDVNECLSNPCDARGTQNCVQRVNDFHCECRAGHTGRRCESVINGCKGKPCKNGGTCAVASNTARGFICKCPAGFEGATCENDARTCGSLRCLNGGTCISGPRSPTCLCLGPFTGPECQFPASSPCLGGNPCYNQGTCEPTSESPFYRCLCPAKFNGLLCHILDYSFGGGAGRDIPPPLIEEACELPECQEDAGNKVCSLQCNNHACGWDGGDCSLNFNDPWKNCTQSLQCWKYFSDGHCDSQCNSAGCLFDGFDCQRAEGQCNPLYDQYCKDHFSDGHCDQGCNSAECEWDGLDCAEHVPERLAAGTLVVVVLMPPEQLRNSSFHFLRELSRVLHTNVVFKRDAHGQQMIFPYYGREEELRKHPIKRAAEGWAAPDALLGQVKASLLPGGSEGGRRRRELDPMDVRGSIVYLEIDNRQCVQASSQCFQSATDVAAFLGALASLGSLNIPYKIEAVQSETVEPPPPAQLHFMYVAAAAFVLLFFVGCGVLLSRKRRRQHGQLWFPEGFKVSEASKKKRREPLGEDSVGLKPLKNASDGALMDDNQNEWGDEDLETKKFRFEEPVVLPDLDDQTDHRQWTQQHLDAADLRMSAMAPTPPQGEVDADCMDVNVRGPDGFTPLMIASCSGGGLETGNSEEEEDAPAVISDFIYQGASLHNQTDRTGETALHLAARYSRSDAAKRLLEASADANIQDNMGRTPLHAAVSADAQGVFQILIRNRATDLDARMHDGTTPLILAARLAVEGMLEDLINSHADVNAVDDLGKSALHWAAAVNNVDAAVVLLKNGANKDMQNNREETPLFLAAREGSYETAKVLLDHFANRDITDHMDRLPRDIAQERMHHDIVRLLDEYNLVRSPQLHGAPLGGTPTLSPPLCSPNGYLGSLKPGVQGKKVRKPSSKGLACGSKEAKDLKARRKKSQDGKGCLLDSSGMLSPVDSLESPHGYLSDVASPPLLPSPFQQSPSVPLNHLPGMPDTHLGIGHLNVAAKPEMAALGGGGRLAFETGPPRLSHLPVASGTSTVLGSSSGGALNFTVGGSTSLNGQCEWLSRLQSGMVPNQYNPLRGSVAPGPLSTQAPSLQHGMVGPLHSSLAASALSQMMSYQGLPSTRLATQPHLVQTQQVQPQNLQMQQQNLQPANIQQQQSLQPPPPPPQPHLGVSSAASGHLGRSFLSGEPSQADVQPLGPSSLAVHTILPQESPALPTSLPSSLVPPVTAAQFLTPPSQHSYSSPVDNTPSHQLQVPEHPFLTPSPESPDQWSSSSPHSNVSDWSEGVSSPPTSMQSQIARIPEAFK

Binder | binding result [1] | binding result [2]
59R1 Fab (Fab, V domains shown, Human Fab from a synthetic phage library; also called Clone 1; clone 1) VH: QVQLVESGGGLVQPGGSLRLSCAASGFTFSSSGMSWVRQAPGKGLEWVSVIASSGSNTYYADSVKGRFTISRDNSKNTLYLQMNSLRAEDTAVYYCARGIFFAIWGQGTLVTVSS VL: not shown | binds | 
59R5 antibody (antibody, human IgG2, kappa, V domains shown, also called anti-Notch2/3 antibody 59R5; 59R5 IgG2) VH: EVQLVESGGGLVQPGGSLRLSCAASGFTFSSSGMSWVRQAPGKGLEWVSVIASSGSNTYYADSVKGRFTISRDNSKNTLYLQMNSLRAEDTAVYYCARSIFYTTWGQGTLVTVSS VL: not shown |  | binds
